Measurements as given in patent US6884879.
Residue numbers refer to the chain shown, from its start.

Key:
VEGF [1] = molecular target: T1, VEGF (human, UniProt P15692-4 27-191, limits assumed); assay: competition ELISA: biotinylated VEGF preincubated with IgG, capture on KDR-IgG, 10% human serum
T1 construct: also called human VEGF; biotinylated VEGF
Procedure: (§1) Diluted conditioned medium containing 3 ng/ml of KDR-IgG (Park et al., J. Biol. Chem. 269:25646–[…] (1994)) in blocking buffer were incubated on the plate for 1 h. […] The solutions from the tubes were then transferred to the ELISA plates and incubated for 1 h. […] Titration curves were fit with a four-parameter nonlinear regression curve-fitting program (KaleidaGraph, Synergy Software, Reading Pa.). […] Assays for full-length IgG were the same as for the F(ab)s except that the assay buffer contained 10% human serum.
[c]murIgG1 is muMAbVEGF A461 purified from ascites.

VEGF [2] = molecular target: T1, VEGF; assay: competition ELISA (VEGF/KDR-IgG)
Procedure: as §1

VEGF [3] = molecular target: T1, VEGF; assay: competition ELISA: biotinylated VEGF preincubated with F(ab), capture on KDR-IgG
Procedure: as §1

VEGF121 [4] = molecular target: T2, VEGF121 (human, UniProt P15692-9 27-147); assay: BIAcore SPR, VEGF121 immobilized, Fab in solution
T2 construct: also called Purified VEGF121
T2 sequence (looked up): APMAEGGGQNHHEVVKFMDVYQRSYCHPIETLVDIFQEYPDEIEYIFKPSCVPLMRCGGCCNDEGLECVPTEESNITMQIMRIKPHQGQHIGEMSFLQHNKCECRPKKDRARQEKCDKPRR
Procedure: (§2) Binding of humanized A4.6.1 Fab variants was measured by flowing solutions of Fab in PBS/0.05% TWEEN 20™ over the chip at a flow rate of 20 μL/min. Following each binding measurement, residual Fab was stripped from the immobilized ligand by washing with 5 μL of 50 mM aqueous HCl at 3 μL/min. Binding profiles were analyzed by nonlinear regression using a simple monovalent binding model (BIAevaluation software v2.0; Pharmacia).

VEGF121 [5] = molecular target: T2, VEGF121; assay: BIAcore SPR, VEGF121 immobilized
Procedure: as §2

rhVEGF165 = rhVEGF165 (human, UniProt P15692 27-191, limits assumed); assay: cell-based or functional assay

B1: chimeric IgG1 (antibody, V domains shown)
VH: EIQLVQSGPELKQPGETVRISCKASGYTFTNYGMNWVKQAPGKGLKWMGWINTYTGEPTYAADFKRRFTFSLETSASTAYLQISNLKNDDTATYFCAKYPHYYGSSHWYFDVWGAGTTVTVSS
VL: DIQMTQTTSSLSASLGDRVIISCSASQDISNYLNWYQQKPDGTVKVLIYFTSSLHSGVPSRFSGSGSGTDYSLTISNLEPEDIATYYCQQYSTVPWTFGGGTKLEIKR
notes: Murine A4.6.1 VL and VH fused to human kappa CL and human IgG1 heavy chain constant domains; also called chIgG1; chlgG1
VEGF [1]
  IgG1/chlgG1 (ratio of EC50): 1 ratio

B2: muMAb VEGF A.4.6.1 (antibody, V domains shown)
VH: B1 VH
VL: B1 VL
notes: Original murine IgG1 purified from ascites; also called murIgG1; murlgG1
VEGF [1]
  IgG1/chlgG1 (ratio of EC50): 0.759 ratio

B3: F(ab)-4 (Fab, V domains shown)
VH: EVQLVESGGGLVQPGGSLRLSCAASGYTFTNYGMNWVRQAPGKGLEWVGWINTYTGEPTYAADFKRRFTISLDTSKNTLYLQMNSLRAEDTAVYYCARYPHYYGSSHWYFDVWGQGTLVTVSS
VL: DIQMTQSPSSLSASVGDRVTITCSASQDISNYLNWYQQKPGKAPKLLIYFTSSLHSGVPSRFSGSGSGTDFTLTISSLQPEDFATYYCQQYSTVPWTFGQGTKVEIK
notes: F(ab)-1 with ArgH71Leu and AsnH73Thr; human CL and CH1
VEGF [2]
  fold improvement of binding against F(ab)-1: 4 fold
VEGF [3]
  EC50 F(ab)-X / EC50 chimeric F(ab): > 295 ratio

B4: F(ab)-3 (Fab, V domains shown)
VH: B1 VH
VL: B3 VL
VEGF [3]
  EC50 F(ab)-X / EC50 chimeric F(ab): 2.6 ratio

B5: hu2.10 (Fab, V domains shown)
VH: B3 VH with V37I, K76A, N77S, L79V, R98K
VL: B3 VL with F71Y
notes: Phage-selected consensus clone, tested as soluble Fab; also called consensus clone hu2.10
VEGF121 [4]
  KD(A4.6.1)/KD(mut) as headed; fold weaker than the A4.6.1 chimera: 35 ratio

B6: hu2.10V (Fab, V domains shown)
VH: B3 VH with V37I, K76A, N77S, L79V, R98K
VL: B3 VL with L46V, F71Y
notes: hu2.10 with Leu to Val at VL 46; soluble Fab
VEGF121 [4]
  KD(A4.6.1)/KD(mut) as headed; fold weaker than the A4.6.1 chimera: 5.8 ratio
VEGF121 [5]
  fold improvement of KD against hu2.10: 6 fold

B7: Y0313-1 (Fab, V domains shown)
VH: EVQLVESGGGLVQPGGSLRLSCAASGYDFTHYGMNWVRQAPGKGLEWVGWINTYTGEPTYAADFKRRFTFSLDTSKSTAYLQMNSLRAEDTAVYYCAKYPYYYGTSHWYFDVWGQGTL
VL: DIQLTQSPSSLSASVGDRVTITCRANEQLSNYLNWYQQKPGKAPKVLIYFTSSLHSGVPSRFSGSGSGTDFTLTISSLQPEDFATYYCQQYSTVPWTFGQGTKVEIKR
rhVEGF165
  potency in the HuVEC assay against the wild-type Fab (Y0192): 30 fold
